Results from PMC8096781, “FOXM1D potentiates PKM2‐mediated tumor glycolysis and angiogenesis” (Molecular Oncology, 2021).

Biological target: PKM2 (purchased from Abcam) (UniProt P14618 1-531)
Experiment: cell-based or functional assay

Chain of PKM2 (purchased from Abcam) (P14618 whole entry): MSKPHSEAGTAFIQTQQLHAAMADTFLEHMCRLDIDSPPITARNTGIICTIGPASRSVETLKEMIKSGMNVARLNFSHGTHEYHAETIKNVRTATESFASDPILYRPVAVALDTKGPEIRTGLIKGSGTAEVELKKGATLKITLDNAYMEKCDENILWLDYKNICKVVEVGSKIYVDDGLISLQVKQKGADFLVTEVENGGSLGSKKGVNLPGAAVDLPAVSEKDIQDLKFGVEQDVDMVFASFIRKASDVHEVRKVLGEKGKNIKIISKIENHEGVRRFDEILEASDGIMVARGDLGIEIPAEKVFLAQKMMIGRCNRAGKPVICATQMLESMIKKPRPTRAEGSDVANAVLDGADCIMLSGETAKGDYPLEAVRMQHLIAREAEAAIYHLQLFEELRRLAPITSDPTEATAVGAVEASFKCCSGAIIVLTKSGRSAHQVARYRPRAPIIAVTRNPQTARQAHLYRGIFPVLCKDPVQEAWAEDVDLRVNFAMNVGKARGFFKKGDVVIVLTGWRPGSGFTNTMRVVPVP

B1: recombinant Flag-FOXM1D (purified) (natural protein, UniProt Q08050-4 1-786, looked up)
chain: MKTSPRRPLILKRRRLPLPVQNAPSETSEEEPKRSPAQQESNQAEASKEVAESNSCKFPAGIKIINHPTMPNTQVVAIPNNANIHSIITALTAKGKESGSSGPNKFILISCGGAPTQPPGLRPQTQTSYDAKRTEVTLETLGPKPAARDVNLPRPPGALCEQKRETCADGEAAGCTINNSLSNIQWLRKMSSDGLGSRSIKQEMEEKENCHLEQRQVKVEEPSRPSASWQNSVSERPPYSYMAMIQFAINSTERKRMTLKDIYTWIEDHFPYFKHIAKPGWKNSIRHNLSLHDMFVRETSANGKVSFWTIHPSANRYLTLDQVFKQQKRPNPELRRNMTIKTELPLGARRKMKPLLPRVSSYLVPIQFPVNQSLVLQPSVKVPLPLAASLMSSELARHSKRVRIAPKVFGEQVVFGYMSKFFSGDLRDFGTPITSLFNFIFLCLSVLLAEEGIAPLSSAGPGKEEKLLFGEGFSPLLPVQTIKEEEIQPGEEMPHLARPIKVESPPLEEWPSPAPSFKEESSHSWEDSSQSPTPRPKKSYSGLRSPTRCVSEMLVIQHRERRERSRSRRKQHLLPPCVDEPELLFSEGPSTSRWAAELPFPADSSDPASQLSYSQEVGGPFKTPIKETLPISSTPSKSVLPRTPESWRLTPPAKVGGLDFSPVQTSQGASDPLPDPLGLMDLSTTPLQSAPPLESPQRLLSSEPLDLISVPFGNSSPSDIDVPKPGSPEPQVSGLAANRSLTEGLVLDTMNDSLSKILLDISFPGLDEDPLGPDNINWSQFIPELQ
  PK activity of PKM2 with FBP; FOXM1D added at 10, 20 and 30 μg per 10 μg PKM2 (molar ratios about 0.665, 1.33 and 2); share of the activity abolished at 1.33-fold FOXM1D: ~49%
